Target: T1, HypF (E. coli, UniProt P30131 1-750)
T1 construct: HypF, carbamoyltransferase of [NiFe]-hydrogenase maturation of E. coli; 82 kDa; also called His-tagged HypF; auxiliary protein HypF; source: isolated from E. coli, purified as described previously [21] with 10 mM magnesium acetate in all buffers
T1 sequence (looked up): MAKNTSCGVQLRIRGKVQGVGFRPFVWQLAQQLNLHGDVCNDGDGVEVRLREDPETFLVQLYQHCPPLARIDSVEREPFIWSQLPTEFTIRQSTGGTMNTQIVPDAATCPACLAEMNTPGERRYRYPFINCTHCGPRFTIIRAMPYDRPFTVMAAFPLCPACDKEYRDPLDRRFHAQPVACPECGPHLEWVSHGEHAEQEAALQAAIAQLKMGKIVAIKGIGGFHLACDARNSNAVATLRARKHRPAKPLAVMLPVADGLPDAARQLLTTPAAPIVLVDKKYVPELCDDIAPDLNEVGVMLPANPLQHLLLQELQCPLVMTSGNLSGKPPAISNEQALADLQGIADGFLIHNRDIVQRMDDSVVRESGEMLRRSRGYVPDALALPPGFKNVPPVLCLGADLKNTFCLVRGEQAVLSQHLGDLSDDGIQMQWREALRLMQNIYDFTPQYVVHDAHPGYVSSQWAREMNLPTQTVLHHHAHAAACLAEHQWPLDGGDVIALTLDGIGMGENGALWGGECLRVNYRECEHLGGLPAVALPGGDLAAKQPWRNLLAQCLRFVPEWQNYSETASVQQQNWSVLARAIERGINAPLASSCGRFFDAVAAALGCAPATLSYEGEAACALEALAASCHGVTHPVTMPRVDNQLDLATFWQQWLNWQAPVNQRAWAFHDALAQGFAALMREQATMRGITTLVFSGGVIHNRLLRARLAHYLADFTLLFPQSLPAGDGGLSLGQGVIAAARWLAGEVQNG
Assay: native gel or EMSA; native PAGE as described earlier [35,36]; isolated HypE and HypF; no further conditions told for this experiment
Details: both partners purified

B1: HypE (natural protein, E. coli, UniProt P24193 1-336, looked up)
chain: MNNIQLAHGSGGQAMQQLINSLFMEAFANPWLAEQEDQARLDLAQLVAEGDRLAFSTDSYVIDPLFFPGGNIGKLAICGTANDVAVSGAIPRYLSCGFILEEGLPMETLKAVVTSMAETARAAGIAIVTGDTKVVQRGAVDKLFINTAGMGAIPANIHWGAQTLTAGDVLLVSGTLGDHGATILNLREQLGLDGELVSDCAVLTPLIQTLRDIPGVKALRDATRGGVNAVVHEFAAACGCGIELSEAALPVKPAVRGVCELLGLDALNFANEGKLVIAVERNAAEQVLAALHSHPLGKDAALIGEVVERKGVRLAGLYGVKRTLDLPHAEPLPRIC
notes: HypE, [NiFe]-hydrogenase maturation protein of E. coli; 36 kDa monomer; C-terminal cysteine C336 in E. coli nomenclature; also called His-tagged HypE; auxiliary protein HypE; source: isolated from E. coli, purified as described previously [21] with 10 mM magnesium acetate in all buffers
binding result: binds

Reference: paper PMC4506123, “Identification of an Isothiocyanate on the HypEF Complex Suggests a Route for Efficient Cyanyl–Group Channeling during [NiFe]–Hydrogenase Cofactor Generation” (PLoS ONE, 2015)
